The text below walks through data of paper PMC12807514.

Like-named read-outs stand apart in the source and are kept apart here.

Assay [1] has as its target CCR7 (Homo sapiens) (UniProt P32248). The settings on record: cited from earlier work.
For assay [2] the target is unchanged. As to conditions: cited from earlier work. This is another data set of the same source.
In assay [3] the target is C-C Chemokine Receptor 7 (CCR7), endogenous in CEM cells (human (endogenous in CEM)) (UniProt P32248).

CCL19, sequence (Q99731 22-98): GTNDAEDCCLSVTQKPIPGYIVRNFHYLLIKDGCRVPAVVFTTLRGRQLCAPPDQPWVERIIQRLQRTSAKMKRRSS

What is called Kd is the constant that tells how readily two partners part at equilibrium. With CCL19 (from UniProt Q99731), the dissociation constant Kd in the assay with CCR7 (Homo sapiens) [1] was 0.1 nM. Take CCL21 (from UniProt O00585): in the assay with CCR7 (Homo sapiens) [2], the Kd was 0.1 nM. For “human C-C Chemokine Ligand 19 (hCCL19) (from UniProt Q99731 22-98)”, in assay [3], the CCR7 internalization (CCR7 left on the surface, flow cytometry) in CEM T cells with 200 nM CCL19, measured at 2 min intervals over 10 min was 80%.
